1 substance from article PMC6398215 can be followed below.

The assay addresses IgG. The assay is described as follows: not stated; equilibrium affinity of recombinant CHO FcγRIIIa for IgG, before and after enzymatic desialylation; method and conditions only in the supplement (Fig. S16).

As for “enzymatically desialylated recombinant FcγRIIIa expressed in CHO cells (from UniProt P08637 17-254) (receptor)”, the fold increase in equilibrium affinity against the untreated FcγRIIIa turned out to be 2 fold.
